Data: paper PMC8026773

Molecular target: human TREM2 Ig domain (aa 19-134), wild type, biotinylated on a BirA tag (human) (UniProt Q9NZC2)
Experiment: BLI

human TREM2 Ig domain (aa 19-134), wild type, biotinylated on a BirA tag (human), sequence (Q9NZC2 19-134): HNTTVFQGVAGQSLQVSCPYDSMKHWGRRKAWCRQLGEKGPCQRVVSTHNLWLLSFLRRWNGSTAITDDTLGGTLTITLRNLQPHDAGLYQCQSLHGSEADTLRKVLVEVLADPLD

Kd: 696 nM
Substance: ApoE3 1-238 (C-term deletion) (domain or fragment)
